Laboratory results: paper PMC4938712 (Structure (London, England : 1993), 2016)

Columns and labels:
[1] = molecular target: HIV-1 Rev L64A (HIV-1) (UniProt P04618)
[2] = molecular target: HIV-1 Rev P31A (HIV-1) (UniProt P04618); experiment: AUC
[3] = molecular target: T1, HIV-1 Rev, wild type (HIV-1), P04618; experiment: AUC; details: remark: other sources report otherwise
T1 chain: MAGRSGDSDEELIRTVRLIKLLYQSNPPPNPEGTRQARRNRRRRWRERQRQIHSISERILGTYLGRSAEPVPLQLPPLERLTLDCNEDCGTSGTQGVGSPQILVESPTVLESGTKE

[4] = molecular target: HIV-1 Rev, wild type (HIV-1, UniProt P04618); experiment: crystal structure

HIV-1 Rev L64A (from UniProt P04618 1-116) (natural protein)
stoichiometry N [1]: 2

HIV-1 Rev P31A (from UniProt P04618 1-116) (natural protein)
stoichiometry N [2]: 4

B1: HIV-1 Rev, wild type, P04618 1-116 (natural protein)
chain: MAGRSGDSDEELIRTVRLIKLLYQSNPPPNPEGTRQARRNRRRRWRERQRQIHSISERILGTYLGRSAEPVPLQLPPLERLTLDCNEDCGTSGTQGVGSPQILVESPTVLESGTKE
stoichiometry N [3]: 4

B2: anti-Rev single-chain antibody variable fragment (scFv) (scFv, V domains shown)
VH: QEQLVESGGRLVTPGTALTLTCKVSGFSLSGFWLNWVRQAPGKGLEWVGAIYRGSGSEWYASWAKGRFTISDTSTTVTLKLTSPTTEDTATYFCAADTTDNGYFTIWGPGTLVTVSS
VL: ELVMTQTPSSVSEPVGGTVTIKCQASQSISSWLSWYQQKPGQPPKLLIYDASNLASGVPSRFMGSGSGTEYTLTISGVQREDAATYYCLGGYPAASYRTAFGGGTELEII
binding result [4]: binds
